This note sets out measurements from US20210380703A1 (RIGEL PHARMACEUTICALS, published 2021).

In one assay the target is human ACVR2A (human, UniProt P27037 20-135, limits assumed). The assay is described as follows: ELISA. Summed up: (§1)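 ELISA measured binding of ACVR2A-specific monoclonal antibodies to human and mouse ACVR2A. Biotinylated goat anti-human kappa light chain served as positive control and human Fc as negative control.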
On the technique in general: An ELISA detects its analyte on a solid surface through an enzyme-linked reagent.

In the next assay the target is mouse ACVR2A (mouse, UniProt P27038 20-135, limits assumed). The assay is described as follows: ELISA. The gist of the method: as §1
Chain of mouse ACVR2A (P27038 20-135 limits assumed): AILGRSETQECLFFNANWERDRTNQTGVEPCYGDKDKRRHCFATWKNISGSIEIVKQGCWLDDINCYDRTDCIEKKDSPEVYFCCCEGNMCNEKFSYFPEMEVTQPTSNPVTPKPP
In assay [1] the target is T1, biotinylated goat anti-human kappa light chain.
T1 construct: Positive control of the ELISA
The assay is described as follows: ELISA; positive control. Summed up:
as §1
Note: test concentration or dose not given here.

Chain of human ACVR2A (P27037 20-135 limits assumed): as the sequence (P27038 20-135 limits assumed) above, with R20K, I73V counted along it

B1: 374_C11 (antibody, V domains shown)
VH: EVQLLESGGGLVQPGGSLRLSCAASGFTFSSYSMNWVRQAPGKGLEWVAGINYNSGYKGYADSVKGRFTISRDNSKNTLYLQMNSLRAEDTAVYYCARSATWHDTHLDYWGQGTLVTVSS
VL: DIQMTQSPSSLSASVGDRVTITCRASQSILTYLNWYQQKPGKAPKLLIYAATSRASGVPSRFSGSGSGTDFTLTISSLQPEDFATYYCQQSYESPLTFGGGTKVEIK
notes: VH/VL only
For B1, the values for the optical density (in the assay with human ACVR2A; with mouse ACVR2A; in assay [1]) were 3.64 OD, 3.59 OD and 3.21 OD, respectively.

B2: 374_H03 (antibody, V domains shown)
VH: EVQLLESGGGLVQPGGSLRLSCAASGFTFSSYGMNWVRQAPGKGLEWVSGINYNSGYKSYADSVKGRFTISRDNSKNTLYLQMNSLRAEDTAVYYCARSANWHDTALDYWGQGTLVTVSS
VL: DIQMTQSPSSLSASVGDRVTITCRASQSILSYVNWYQQKPGKAPKLVIYAATSRASGVPSRFSGSGSGTDFTLTISSLQPEDFATYYCQQSYDSPLTFGGGTKVEIK
notes: VH/VL only
For the molecule B2, the optical density in the assay with human ACVR2A is 3.27 OD; with mouse ACVR2A, 3.27 OD; in assay [1], 3.06 OD.

B3: 374_D12 (antibody, V domains shown)
VH: EVQLLESGGGLVQPGGSLRLSCAASGFTFDSYSMNWVRQAPGKGLEWVSGINYNGGYTGYADSVKGRFTISRDNSKNTLYLQMNSLRAEDTAVYYCARSATWHDTHLDYWGQGTLVTVSS
VL: DIQMTQSPSSLSASVGDRVTITCRASQSIVSYVNWYQQKPGKAPKLVIYAATSRASGVPSRFSGSGSGTDFTLTISSLQPEDFATYYCQQSYDLPLTFGGGTKVEIK
notes: VH/VL only
On to B3, for which the optical density in the assay with human ACVR2A is 3.55 OD; with mouse ACVR2A, 3.28 OD; in assay [1], 3.09 OD.

B4: 374_E07 (antibody, V domains shown)
VH: EVQLLESGGGLVQPGGSLRLSCAASGFTFSDYSMNWVRQAPGKGLEWVAGINYNGGYTSYADSVKGRFTISRDNSKNTLYLQMNSLRAEDTAVYYCARSANWHDTALDYWGQGTLVTVSS
VL: DIQMTQSPSSLSASVGDRVTITCRASQSIITYVNWYQQKPGKAPKLVIYAATSRASGVPSRFSGSGSGTDFTLTISSLQPEDFATYYCQQSYNTPLTFGGGTKVEIK
notes: VH/VL only
For the molecule B4, the optical density in the assay with human ACVR2A came to 3.63 OD; in the assay with mouse ACVR2A, 3.58 OD; in assay [1], 3.2 OD.

B5: 374_E09 (antibody, V domains shown)
VH: EVQLLESGGGLVQPGGSLRLSCAASGFTFSDYSMNWVRQAPGKGLEWVSGINYNGGYKGYADSVKGRFTISRDNSKNTLYLQMNSLRAEDTAVYYCARSATWHDTHLDYWGQGTLVTVSS
VL: DIQMTQSPSSLSASVGDRVTITCRASQSIVTYLNWYQQKPGKAPKLVIYAATSRASGVPSRFSGSGSGTDFTLTISSLQPEDFATYYCQQSYDSPLTFGGGTKVEIK
notes: VH/VL only
Consider B5, for which the optical density with human ACVR2A worked out at 3.67 OD; in the assay with mouse ACVR2A, 3.58 OD; in assay [1], 3.16 OD.

B6: 374_E05 (antibody, V domains shown)
VH: EVQLLESGGGLVQPGGSLRLSCAASGFTFSSYSMNWVRQAPGKGLEWVAGINYNGGYTSYADSVKGRFTISRDNSKNTLYLQMNSLRAEDTAVYYCARSANWHDTALDYWGQGTLVTVSS
VL: DIQMTQSPSSLSASVGDRVTITCRASQSILSFVNWYQQKPGKAPKLVIYAATSRASGVPSRFSGSGSGTDFTLTISSLQPEDFATYYCQQSYNLPLTFGGGTKVEIK
notes: VH/VL only
As for B6, the optical density was 3.56 OD in the assay with human ACVR2A, 3.57 OD with mouse ACVR2A and 3.18 OD in assay [1].

B7: 374_E08 (antibody, V domains shown)
VH: EVQLLESGGGLVQPGGSLRLSCAASGFTFSSYGMNWVRQAPGKGLEWVAGINYNGGYKSYADSVKGRFTISRDNSKNTLYLQMNSLRAEDTAVYYCARSANWHDTALDYWGQGTLVTVSS
VL: DIQMTQSPSSLSASVGDRVTITCRASQSILSYLNWYQQKPGKAPKLLIYAATSRHSGVPSRFSGSGSGTDFTLTISSLQPEDFATYYCQQSYDLPLTFGGGTKVEIK
notes: VH/VL only
B7: the optical density came out at 3.5 OD with human ACVR2A, 3.52 OD with mouse ACVR2A and 3.26 OD in assay [1].

B8: 374_G06 (antibody, V domains shown)
VH: EVQLLESGGGLVQPGGSLRLSCAASGFTFSSYGMHWVRQAPGKGLEWVASINYNGGYTSYADSVKGRFTISRDNSKNTLYLQMNSLRAEDTAVYYCARSANWHDTALDYWGQGTLVTVSS
VL: DIQMTQSPSSLSASVGDRVTITCRASQSILSYLNWYQQKPGKAPKLLIYAVTSRASGVPSRFSGSGSGTDFTLTISSLQPEDFATYYCQQSYDLPLTFGGGTKVEIK
notes: VH/VL only
As for B8, the results for the optical density (with human ACVR2A; with mouse ACVR2A; in assay [1]) were 3.26 OD, 3.42 OD and 3.29 OD, respectively.

B9: 374_G07 (antibody, V domains shown)
VH: EVQLLESGGGLVQPGGSLRLSCAASGFTFSSYSMNWVRQAPGKGLEWVSGINYNSGYKSYADSVKGRFTISRDNSKNTLYLQMNSLRAEDTAVYYCARSANWHDTALDYWGQGTLVTVSS
VL: DIQMTQSPSSLSASVGDRVTITCRASQSIISYLNWYQQKPGKAPKLLIYAATSRASGVPSRFSGSGSGTDFTLTISSLQPEDFATYYCQQSYDSPLTFGGGTKVEIK
notes: VH/VL only
B9: the figures for the optical density (in the assay with human ACVR2A; with mouse ACVR2A; in assay [1]) were 3.63 OD, 3.72 OD and 3.26 OD, respectively.

B10: 374_F04 (antibody, V domains shown)
VH: EVQLLESGGGLVQPGGSLRLSCAASGFTFSSYGMNWVRQAPGKGLEWVSGINYNSGYKSYADSVKGRFTISRDNSKNTLYLQMNSLRAEDTAVYYCARSANWHDTALDYWGQGTLVTVSS
VL: DIQMTQSPSSLSASVGDRVTITCRASQSILTYVNWYQQKPGKAPKLLIYAATSRASGVPSRFSGSGSGTDFTLTISSLQPEDFATYYCQQSYNSPLTFGGGTKVEIK
notes: VH/VL only
For B10, the figures for the optical density (with human ACVR2A; with mouse ACVR2A; in assay [1]) were 3.58 OD, 3.65 OD and 3.23 OD, respectively.

B11: 374_F01 (antibody, V domains shown)
VH: EVQLLESGGGLVQPGGSLRLSCAASGFTFDSYSMNWVRQAPGKGLEWVSNINYNGGYTGYADSVKGRFTISRDNSKNTLYLQMNSLRAEDTAVYYCARSANWHDTALDYWGQGTLVTVSS
VL: DIQMTQSPSSLSASVGDRVTITCRASQSILSYVNWYQQKPGKAPKLVIYAATSRHSGVPSRFSGSGSGTDFTLTISSLQPEDFATYYCQQSYENPLTFGGGTKVEIK
notes: VH/VL only
B11: the optical density with human ACVR2A turned out to be 3.29 OD; in the assay with mouse ACVR2A, 3.6 OD; in assay [1], 3.03 OD.

B12: 374_E11 (antibody, V domains shown)
VH: EVQLLESGGGLVQPGGSLRLSCAASGFTFSSYGMNWVRQAPGKGLEWVSNINYNGGYTSYADSVKGRFTISRDNSKNTLYLQMNSLRAEDTAVYYCARSANWHDTALDYWGQGTLVTVSS
VL: DIQMTQSPSSLSASVGDRVTITCRASQSIVTYLNWYQQKPGKAPKLVIYAATSRASGVPSRFSGSGSGTDFTLTISSLQPEDFATYYCQQSYDSPLTFGGGTKVEIK
notes: VH/VL only
Turning to B12, the optical density with human ACVR2A was found to be 3.61 OD; with mouse ACVR2A it was 3.59 OD; in assay [1], 3.34 OD.

B13: 374_F11 (antibody, V domains shown)
VH: EVQLLESGGGLVQPGGSLRLSCAASGFTFDSYSMNWVRQAPGKGLEWVSNINYNGGYTGYADSVKGRFTISRDNSKNTLYLQMNSLRAEDTAVYYCARSANWHDTALDYWGQGTLVTVSS
VL: DIQMTQSPSSLSASVGDRVTITCRASQSILSYLNWYQQKPGKAPKLLIYAVTSLASGVPSRFSGSGSGTDFTLTISSLQPEDFATYYCQQSYESPLTFGGGTKVEIK
notes: VH/VL only
With B13, the optical density turned out to be 3.66 OD in the assay with human ACVR2A, 3.61 OD with mouse ACVR2A and 3.15 OD in assay [1].

B14: 374_D02 (antibody, V domains shown)
VH: EVQLLESGGGLVQPGGSLRLSCAASGFTFDSYSMNWVRQAPGKGLEWVAGINYNSGYTSYADSVKGRFTISRDNSKNTLYLQMNSLRAEDTAVYYCARSATWHDTHLDYWGQGTLVTVSS
VL: DIQMTQSPSSLSASVGDRVTITCRASQSISTYVNWYQQKPGKAPKLLIYAVTSLASGVPSRFSGSGSGTDFTLTISSLQPEDFATYYCQQSYDSPLTFGGGTKVEIK
notes: VH/VL only
Take B14: the optical density was 3.06 OD with human ACVR2A, 3.2 OD with mouse ACVR2A and 2.99 OD in assay [1].

B15: 374_E02 (antibody, V domains shown)
VH: EVQLLESGGGLVQPGGSLRLSCAASGFTFSSYSMNWVRQAPGKGLEWVSGINYNGGYTSYADSVKGRFTISRDNSKNTLYLQMNSLRAEDTAVYYCARSANWHDTALDYWGQGTLVTVSS
VL: DIQMTQSPSSLSASVGDRVTITCRASQSILSYLNWYQQKPGKAPKLLIYAATSLASGVPSRFSGSGSGTDFTLTISSLQPEDFATYYCQQSYDLPLTFGGGTKVEIK
notes: VH/VL only
In the case of B15, the optical density with human ACVR2A stood at 3.23 OD; with mouse ACVR2A, 3.33 OD; in assay [1], 3.18 OD.

B16: 374_F10 (antibody, V domains shown)
VH: EVQLLESGGGLVQPGGSLRLSCAASGFTFSSYSMNWVRQAPGKGLEWVSGINYNGGYTSYADSVKGRFTISRDNSKNTLYLQMNSLRAEDTAVYYCARSANWHDTALDYWGQGTLVTVSS
VL: DIQMTQSPSSLSASVGDRVTITCRASQSILSYLNWYQQKPGKAPKLVIYAATSRASGVPSRFSGSGSGTDFTLTISSLQPEDFATYYCQQSYDNPLTFGGGTKVEIK
notes: VH/VL only
For B16, the optical density is 3.21 OD with human ACVR2A, 3.45 OD with mouse ACVR2A and 3.28 OD in assay [1].

B17: 374_G04 (antibody, V domains shown)
VH: EVQLLESGGGLVQPGGSLRLSCAASGFTFSSYSMNWVRQAPGKGLEWVAGINYNGGYTGYADSVKGRFTISRDNSKNTLYLQMNSLRAEDTAVYYCARSANWHDTALDYWGQGTLVTVSS
VL: DIQMTQSPSSLSASVGDRVTITCRASQSILTYLNWYQQKPGKAPKLVIYAATSLASGVPSRFSGSGSGTDFTLTISSLQPEDFATYYCQQSYDNPLTFGGGTKVEIK
notes: VH/VL only
For B17, the values for the optical density (with human ACVR2A; with mouse ACVR2A; in assay [1]) were 2.1 OD, 2.32 OD and 3.02 OD, respectively.
